Ends that are not written are not given here. Peptide text beside a SMILES is read from it. * marks the point of attachment. ξ: configuration not given here. Lipoyl(6ξ) = O=C(CCCCC1CCSS1)*

Data set [1] has as its system kidneys (i.e. proximal tubule cells, PTCs). As to conditions: in vivo; cited from earlier work.
Another data set relates to kidney. Put plainly: Scintigraphic / SPECT distribution of radiolabelled peptides and conjugates (kidney selectivity). The arrangement: species or system NMRI mice. The note with it: mouse, in vivo; for kidney specificity: iv. As to the method: The labelling is carried out using a 1 mM stock solution of the peptide to be labelled in water (dimethyl sulfoxide (DMSO) may have to be added for better solubility). Tyrosine-containing peptides are labelled with iodine-123, iodine-125 or iodine-131 (Perkin-Elmer, Waltham, Mass., USA) by means of the chloramine-T method. To this end, 20 μl of phosphate buffer (0.25 M, pH 7.4) are added to 10 μl of the stock solution, and the desired amount of radioactive iodine is added. For the labelling, 5 μl of chloramine-T (2 mg/ml of H2O) are added. The reaction is carried out for 30 seconds and is subsequently terminated using 10 μl of a saturated methionine solution. In order to separate off free iodine and by-products, the reaction mixture is purified by means of semipreparative HPLC (Chromolith RP-18e, 100×4.6 mm). The separation is carried out using a linear gradient from 0.1% of TFA in water to 0.1% of TFA in acetonitrile in 10 minutes (flow rate: 2 ml/min, UV absorption at 214 nm, γ detection). The solvent is subsequently removed in a rotary evaporator, and the labelled peptide is taken up in the desired buffer.
The tyrosine-containing peptides are labelled with ^125iodine by means of the chloramine-T method. For the labelling, a 1 mM stock solution in water is used. If necessary, DMSO is added for better solubility. To this end, 20 μl of phosphate buffer (0.25 M, pH 7.4) are added to 10 μl of the stock solution, and the desired amount of radioactive iodine is added. The labelling is carried out using 5 μl of chloramine-T (2 mg/ml of H2O). The reaction is carried out for 30 seconds and is subsequently terminated using 10 μl of a saturated methionine solution.
After the labelling, the peptide is purified by means of semi-preparative HPLC in order to remove the excess free iodine and other by-products. 100 μl of the 0.1 mM stock solution are in each case used for the injection. Before the injection, the radioactivity is recorded by means of a Geiger counter. […]

As for `C[C@@H](O)[C@@H]1NC(=O)[C@H](CCCCN)NC(=O)[C@@H](Cc2c[nH]c3ccccc23)NC(=O)[C@H](Cc2ccc(O)cc2)NC(=O)[C@@H](NC(=O)[C@@H](Cc2ccccc2)NC(=O)CN2CCN(CC(=O)O)CCN(CC(=O)O)CCN(CC(=O)O)CC2)CSSC[C@@H](C(=O)N[C@H](CO)[C@@H](C)O)NC1=O` [DOTATOC], the “uptake by the kidneys” value in data set [1] was “about 20%”.

Take “diacetylcaffeic acid (KKEEE)3K: diacetylcaffeic acid bonded at the N terminal of y(KKEEE)3K (KKEEEKKEEEKKEEEK-NH2; not fully specified (N-terminus))”: in the data set with kidney, the kidney specificity entry is given as “retain their high kidney specificity”.

Consider `NCCCCC(NC(=O)C(CCC(=O)O)NC(=O)C(CCC(=O)O)NC(=O)C(CCC(=O)O)NC(=O)C(CCCCNC(=O)CCCCC1CCSS1)NC(=O)C(CCCCN)NC(=O)C(CCCCN)NC(=O)C(CCC(=O)O)NC(=O)C(CCC(=O)O)NC(=O)C(CCC(=O)O)NC(=O)C(CCCCNC(=O)CCCCC1CCSS1)NC(=O)C(CCCCN)NC(=O)C(CCCCN)NC(=O)C(CCC(=O)O)NC(=O)C(CCC(=O)O)NC(=O)C(CCC(=O)O)NC(=O)C(CCCCNC(=O)CCCCC1CCSS1)NC(=O)C(CCCCN)NC(=O)C(CCCCN)NC(=O)C(N)Cc1ccc(O)cc1)C(N)=O` (stereo not shown) [y(KKKε(lipoic acid)EEE)3K] (H-YKKK(Lipoyl(6ξ))EEEKKK(Lipoyl(6ξ))EEEKKK(Lipoyl(6ξ))EEEK-NH2; configuration not given here), for which the kidney specificity result with kidney is reported as “high kidney specificity”.

Take “(APASLYN)2: dimer of literature kidney-selective peptide APASLYN (Denby et al.), SEQ ID NO: 90 (APASLYNAPASLYN; not fully specified)”: the kidney selectivity result in the data set on kidney is given as “already inadequate”.

The values above are taken from patent publication US10065993B2, “Peptides and peptide/active compound conjugates for renal targeting” (MERCK PATENT GMBH, priority 2013, dated 2018).
